Assay results published in PMC12323374.

How the values were obtained:
Nsp3 ADRP (SARS-CoV-2) = experiment: EMSA
[1] = tested on: Nucleocapsid (N) protein (SARS-CoV-2); experiment: EMSA
[2] = tested on: Nsp3 Y domain (SARS-CoV-2); experiment: EMSA
Nsp3 NAB (SARS-CoV-2) = experiment: EMSA
Nsp3 HSUD (SARS-CoV-2) = experiment: EMSA
[3] = tested on: Nsp3 Ubl1 (in N complex);N protein (in Ubl1 complex) (SARS-CoV-2;SARS-CoV-2); experiment: EMSA
[4] = tested on: Nsp3 Ubl1 (SARS-CoV-2 (MN908947.3?)); experiment: EMSA
[5] = molecular target: SARS-CoV-2 Nsp3 ubiquitin-like 1 (Ubl1) domain, residues 1-111 (SARS-CoV-2); experiment: crystal structure
[6] = molecular target: SARS-CoV-2 nucleocapsid (N) protein, full length (419 amino acids) (SARS-CoV-2) (UniProt P0DTC9); experiment: SEC-RALS

**Q.** With 5' UTR (1-245) as the substance, how does the Kd (Nsp3 ADRP (SARS-CoV-2)) read?
**A.** 198 µM

**Q.** What about the Kd [1] of the same substance?
**A.** 790 nM

**Q.** What about the Kd [2] of the same substance?
**A.** 700 nM

**Q.** What about the Kd (Nsp3 NAB (SARS-CoV-2)) of the same substance?
**A.** 204 µM

**Q.** And the Kd (Nsp3 HSUD (SARS-CoV-2))?
**A.** 41 µM

**Q.** What about the Kd [3] of the same substance?
**A.** 7 nM

**Q.** What about the Kd [4] of the same substance?
**A.** 31 µM

**Q.** “SARS-CoV-2 Nsp3 ubiquitin-like 1 (Ubl1) domain, residues 1-111 (domain or fragment)” was tested. Which stoichiometry N [5] did it give?
**A.** 2

**Q.** Which stoichiometry N (Ubl1 per N (4:4)) [6] does the source give for “His6-Nsp3 Ubl1 domain (residues 1-111) (domain or fragment)” here?
**A.** 1
